Results taken from article PMC10585736, “Analyses of POL30 (PCNA) reveal positional effects in transient repression or bi-modal active/silent state at the sub-telomeres of S. cerevisiae” (Epigenetics & Chromatin, 2023).
Where a chain is given by its changes, count along the chain named.

Molecular target: T1, Rrm3p-Myc (S. cerevisiae, UniProt P38766 1-723)
T1 construct: Rrm3p DNA helicase, S. cerevisiae; source: expressed from a low copy plasmid in the POL30-0 and mutant pol30 yeast strains, in lysate
T1 sequence (looked up): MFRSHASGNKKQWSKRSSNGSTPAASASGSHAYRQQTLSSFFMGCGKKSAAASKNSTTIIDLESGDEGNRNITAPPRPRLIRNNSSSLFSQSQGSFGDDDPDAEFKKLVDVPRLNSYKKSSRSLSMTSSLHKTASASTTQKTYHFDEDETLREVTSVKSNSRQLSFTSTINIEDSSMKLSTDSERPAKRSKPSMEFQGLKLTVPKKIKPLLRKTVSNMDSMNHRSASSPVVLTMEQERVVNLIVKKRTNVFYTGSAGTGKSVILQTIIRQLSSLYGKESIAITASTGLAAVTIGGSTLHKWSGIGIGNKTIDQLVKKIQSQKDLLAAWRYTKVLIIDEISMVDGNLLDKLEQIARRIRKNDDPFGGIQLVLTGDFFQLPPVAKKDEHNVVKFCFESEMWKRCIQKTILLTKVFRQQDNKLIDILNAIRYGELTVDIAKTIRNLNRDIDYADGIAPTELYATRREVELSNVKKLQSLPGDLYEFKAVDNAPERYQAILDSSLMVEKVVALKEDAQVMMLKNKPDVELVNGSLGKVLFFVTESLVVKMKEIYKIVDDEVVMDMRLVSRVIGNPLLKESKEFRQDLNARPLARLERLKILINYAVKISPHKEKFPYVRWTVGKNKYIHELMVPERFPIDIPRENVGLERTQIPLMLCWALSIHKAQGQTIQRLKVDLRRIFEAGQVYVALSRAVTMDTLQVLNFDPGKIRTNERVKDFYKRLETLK
Assay: co-IP; Cac1p-FLAG and Rrm3p-Myc from low copy plasmids in the POL30-0 and mutant pol30 strains; α-FLAG or α-Myc precipitation from lysate in IP buffer (150 mM NaCl, 50 mM Tris pH 7.5, 2 mM EDTA), washes with 0.2% Triton X100 + 0.01% SDS, elution with FLAG or Myc peptide, blot with α-PCNA
Details: partners not purified

B1: pol30-6 mutant Pol30p of the pol30-6 strain (natural protein, S. cerevisiae, UniProt P15873 1-258, looked up)
chain: MLEAKFEEASLFKRIIDGFKDCVQLVNFQCKEDGIIAQAVAASRVLLVSLEIGVEAFQEYRCDHPVTLGMDLTSLSKILRCGNNTDTLTLIADNTPDSIILLFEDTKKDRIAEYSLKLMDIDADFLKIEELQYDSTLSLPSSEFSKIVRDLSQLSDSINIMITKETIKFVADGDIGSGSVIIKPFVDMEHPETSIKLEMDQPVDLTFGAKYLLDIIKGSSLSDRVGIRLSSEAPALFQFDLKSGFLQFFLAPKFNDEE
notes: Pol30p (PCNA), S. cerevisiae, double alanine substitutions at Asp 41 and Asp 42; detected with α-PCNA; also called Pol30-6p; source: expressed in the pol30-6 mutant yeast strain, in lysate
  fold reduction of co-precipitated Pol30p against wild-type Pol30p: 5 fold

B2: pol30-8 mutant Pol30p of the pol30-8 strain (natural protein, S. cerevisiae, UniProt P15873 1-258, looked up)
chain: B1 chain with A41D, A42D, R61A, D63A
notes: Pol30p (PCNA), S. cerevisiae, double alanine substitutions at Arg 61 and Asp 63; detected with α-PCNA; also called Pol30-8p; source: expressed in the pol30-8 mutant yeast strain, in lysate
  fold reduction of co-precipitated Pol30p against wild-type Pol30p: < 2 fold
